Common to all, as to experiment: cell-based or functional assay
The target of test [1] is T1, Flt1(h) (human) (UniProt P17948).
T1 sequence (looked up): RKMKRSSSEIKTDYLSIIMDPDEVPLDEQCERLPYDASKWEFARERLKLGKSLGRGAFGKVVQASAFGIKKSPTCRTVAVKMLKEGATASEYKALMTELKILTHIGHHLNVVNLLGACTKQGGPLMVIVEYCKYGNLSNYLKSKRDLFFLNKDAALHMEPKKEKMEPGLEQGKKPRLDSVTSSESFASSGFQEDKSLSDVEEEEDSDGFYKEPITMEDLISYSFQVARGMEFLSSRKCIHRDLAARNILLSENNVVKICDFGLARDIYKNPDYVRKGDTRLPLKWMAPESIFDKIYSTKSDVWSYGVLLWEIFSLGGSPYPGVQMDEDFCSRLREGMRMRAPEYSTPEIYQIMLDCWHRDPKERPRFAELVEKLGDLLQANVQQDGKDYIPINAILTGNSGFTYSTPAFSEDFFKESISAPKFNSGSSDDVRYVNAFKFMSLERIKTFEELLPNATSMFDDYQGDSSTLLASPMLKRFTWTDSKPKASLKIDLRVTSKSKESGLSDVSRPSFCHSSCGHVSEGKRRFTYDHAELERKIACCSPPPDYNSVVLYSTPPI

For test [2], the target named is Syk(h) (human) (UniProt P43405).
Test [3] concerns the target T2, Txk(h) (human) (UniProt P42681).
T2 sequence (looked up): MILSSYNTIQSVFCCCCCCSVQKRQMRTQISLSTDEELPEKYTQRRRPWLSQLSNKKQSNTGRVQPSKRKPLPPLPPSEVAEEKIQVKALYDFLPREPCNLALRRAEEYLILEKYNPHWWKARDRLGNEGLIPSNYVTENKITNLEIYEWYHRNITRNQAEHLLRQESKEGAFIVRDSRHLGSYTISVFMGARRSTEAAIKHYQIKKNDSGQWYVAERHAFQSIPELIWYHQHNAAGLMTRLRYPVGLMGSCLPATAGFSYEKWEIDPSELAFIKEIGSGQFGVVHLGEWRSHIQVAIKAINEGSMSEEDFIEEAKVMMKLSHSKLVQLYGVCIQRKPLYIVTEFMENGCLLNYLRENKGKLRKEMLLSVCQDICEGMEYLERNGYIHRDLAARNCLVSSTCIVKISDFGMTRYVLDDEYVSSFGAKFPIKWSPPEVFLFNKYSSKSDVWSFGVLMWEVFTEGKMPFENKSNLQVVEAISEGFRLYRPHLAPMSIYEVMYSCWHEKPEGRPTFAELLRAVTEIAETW

The target in test [4] is PKCβII(h) (human) (UniProt P05771).
Test [5] has as its target T3, NEK11(h) (human) (UniProt Q8NG66).
T3 sequence (looked up): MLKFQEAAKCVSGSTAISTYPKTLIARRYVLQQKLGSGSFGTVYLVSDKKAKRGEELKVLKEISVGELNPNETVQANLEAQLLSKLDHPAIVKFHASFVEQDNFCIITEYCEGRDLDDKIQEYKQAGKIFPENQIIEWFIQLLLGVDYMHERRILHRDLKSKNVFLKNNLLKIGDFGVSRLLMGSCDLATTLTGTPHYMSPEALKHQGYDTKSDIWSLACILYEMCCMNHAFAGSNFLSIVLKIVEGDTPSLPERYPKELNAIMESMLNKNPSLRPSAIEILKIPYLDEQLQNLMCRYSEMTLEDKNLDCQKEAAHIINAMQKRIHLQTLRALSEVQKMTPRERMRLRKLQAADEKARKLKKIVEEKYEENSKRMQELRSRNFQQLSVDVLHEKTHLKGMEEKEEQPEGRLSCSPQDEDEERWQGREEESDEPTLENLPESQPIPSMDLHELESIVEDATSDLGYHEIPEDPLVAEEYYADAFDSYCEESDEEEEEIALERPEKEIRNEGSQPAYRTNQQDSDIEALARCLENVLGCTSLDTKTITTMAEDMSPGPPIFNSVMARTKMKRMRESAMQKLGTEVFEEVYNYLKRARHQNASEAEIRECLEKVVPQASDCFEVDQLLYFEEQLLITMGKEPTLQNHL

In test [6] the target is Abl(Q252H)(h) (human) (UniProt P00519).
Test [7] addresses Tie2(Y897S)(h) (human) (UniProt Q02763).
The target of test [8] is FGFR1(h) (human) (UniProt P11362).
For test [9], the target named is T4, TAO2(h) (human) (UniProt Q9UL54).
T4 sequence (looked up): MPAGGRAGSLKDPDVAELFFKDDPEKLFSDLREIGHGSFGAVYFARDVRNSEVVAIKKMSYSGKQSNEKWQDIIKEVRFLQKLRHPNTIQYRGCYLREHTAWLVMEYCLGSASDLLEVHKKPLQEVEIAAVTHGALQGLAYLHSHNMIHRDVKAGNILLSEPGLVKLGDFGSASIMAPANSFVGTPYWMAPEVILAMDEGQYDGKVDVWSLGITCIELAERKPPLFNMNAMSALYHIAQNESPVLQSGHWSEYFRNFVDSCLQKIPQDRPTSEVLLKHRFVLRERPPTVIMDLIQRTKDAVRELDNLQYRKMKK

Test [10] concerns the target Flt4(h) (human) (UniProt P35916).
For test [11], the target named is ROCK-I(h) (human) (UniProt Q13464).

Sequence of Flt4(h) (human) (P35916 800-1363 limits assumed): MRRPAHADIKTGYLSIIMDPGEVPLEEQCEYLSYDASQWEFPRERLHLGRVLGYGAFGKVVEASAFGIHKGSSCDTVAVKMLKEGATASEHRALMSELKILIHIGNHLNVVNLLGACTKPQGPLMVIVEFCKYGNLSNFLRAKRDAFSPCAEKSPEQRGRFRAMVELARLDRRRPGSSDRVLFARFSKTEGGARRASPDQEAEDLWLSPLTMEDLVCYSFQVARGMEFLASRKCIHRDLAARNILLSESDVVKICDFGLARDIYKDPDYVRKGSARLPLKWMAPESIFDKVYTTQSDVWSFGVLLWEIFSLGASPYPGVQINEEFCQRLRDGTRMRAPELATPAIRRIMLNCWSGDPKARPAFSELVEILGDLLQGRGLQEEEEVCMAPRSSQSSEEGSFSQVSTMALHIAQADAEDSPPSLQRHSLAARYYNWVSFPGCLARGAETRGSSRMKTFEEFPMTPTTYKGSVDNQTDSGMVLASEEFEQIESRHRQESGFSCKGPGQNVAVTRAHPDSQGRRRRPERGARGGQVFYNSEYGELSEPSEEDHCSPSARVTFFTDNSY
Sequence of Tie2(Y897S)(h) (human) (Q02763 771-1124 Y897S limits assumed): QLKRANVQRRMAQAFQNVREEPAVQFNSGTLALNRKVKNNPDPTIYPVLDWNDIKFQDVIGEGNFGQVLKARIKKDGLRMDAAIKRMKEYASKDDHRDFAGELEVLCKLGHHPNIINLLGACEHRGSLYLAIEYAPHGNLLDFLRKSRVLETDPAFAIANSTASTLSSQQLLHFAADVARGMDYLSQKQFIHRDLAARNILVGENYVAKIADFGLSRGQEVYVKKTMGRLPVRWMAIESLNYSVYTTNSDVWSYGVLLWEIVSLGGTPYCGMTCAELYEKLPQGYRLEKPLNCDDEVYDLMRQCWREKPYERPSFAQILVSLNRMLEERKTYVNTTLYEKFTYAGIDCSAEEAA
Sequence of Abl(Q252H)(h) (human) (P00519 27-1130 Q252H limits assumed): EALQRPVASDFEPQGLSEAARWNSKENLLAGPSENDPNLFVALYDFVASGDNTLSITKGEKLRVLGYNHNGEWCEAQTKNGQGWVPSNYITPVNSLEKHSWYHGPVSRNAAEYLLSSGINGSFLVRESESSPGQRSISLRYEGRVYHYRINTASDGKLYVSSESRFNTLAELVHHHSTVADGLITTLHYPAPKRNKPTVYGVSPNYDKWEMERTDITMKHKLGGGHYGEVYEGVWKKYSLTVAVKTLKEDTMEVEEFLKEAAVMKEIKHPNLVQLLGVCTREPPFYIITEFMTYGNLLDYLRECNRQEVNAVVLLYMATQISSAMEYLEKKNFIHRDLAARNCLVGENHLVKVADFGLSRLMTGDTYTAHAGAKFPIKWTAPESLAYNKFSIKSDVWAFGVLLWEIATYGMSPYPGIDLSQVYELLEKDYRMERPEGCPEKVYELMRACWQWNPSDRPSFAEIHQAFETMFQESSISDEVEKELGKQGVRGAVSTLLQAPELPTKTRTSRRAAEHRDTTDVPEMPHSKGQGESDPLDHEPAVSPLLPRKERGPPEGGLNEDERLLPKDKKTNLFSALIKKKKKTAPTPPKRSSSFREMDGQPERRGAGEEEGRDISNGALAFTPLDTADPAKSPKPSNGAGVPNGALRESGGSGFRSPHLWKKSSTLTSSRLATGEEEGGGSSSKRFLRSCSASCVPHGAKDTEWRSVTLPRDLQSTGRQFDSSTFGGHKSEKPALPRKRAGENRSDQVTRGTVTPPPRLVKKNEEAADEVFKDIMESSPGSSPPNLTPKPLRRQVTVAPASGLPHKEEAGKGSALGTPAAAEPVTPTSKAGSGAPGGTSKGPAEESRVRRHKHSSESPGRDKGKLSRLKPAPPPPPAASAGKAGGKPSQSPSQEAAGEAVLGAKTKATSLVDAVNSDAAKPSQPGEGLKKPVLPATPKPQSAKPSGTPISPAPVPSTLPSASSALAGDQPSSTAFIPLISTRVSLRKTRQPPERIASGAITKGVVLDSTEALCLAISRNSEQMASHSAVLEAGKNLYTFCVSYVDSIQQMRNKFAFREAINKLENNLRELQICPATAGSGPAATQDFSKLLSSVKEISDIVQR
Sequence of FGFR1(h) (human) (P11362 456-765 limits assumed): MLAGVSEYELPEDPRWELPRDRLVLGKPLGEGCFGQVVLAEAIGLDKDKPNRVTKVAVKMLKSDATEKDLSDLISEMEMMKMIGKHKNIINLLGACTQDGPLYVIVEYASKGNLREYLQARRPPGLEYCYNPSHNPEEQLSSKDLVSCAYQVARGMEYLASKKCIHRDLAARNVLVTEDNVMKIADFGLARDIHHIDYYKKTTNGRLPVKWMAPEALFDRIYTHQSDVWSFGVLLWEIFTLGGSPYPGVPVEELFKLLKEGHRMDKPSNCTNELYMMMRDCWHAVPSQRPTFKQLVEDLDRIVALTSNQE

Regarding MMI-0500 (peptide), the % activity at 100 µM in [1] worked out at 27%; in [2], 5%; in test [3] it was 10%; in [4] it was 3%; in test [5], 2%; in test [6], 40%. Further, the % activity at 100 µM in test [7] amounted to 80%; in test [8], 18%; in [9] it was 15%; in [10], 73%; in [11] it was 17%.

For MMI-0300 (peptide), the % activity at 100 µM was determined as 69% in test [1]; 24% in test [2]; 48% in test [3]; 82% in [4]; 53% in test [5]; 82% in [6]. In addition, the % activity at 100 µM in test [7] turned out to be 83%; in [8] it was 55%; in test [9], 70%; in [10], 83%; in test [11], 79%.

MMI-0400 (peptide): the % activity at 100 µM in [1] stood at 48%; in [2], 9%; in test [3], 37%; in test [4], 75%; in test [5], 33%; in [6], 98%. For the same substance, the % activity at 100 µM in [7] is 87%; in test [8] it was 59%; in test [9] it was 74%; in [10], 89%; in test [11] it was 73%.

The record behind these values is patent US20150064134A1.
